Experimental data from paper PMC8075905, “Mapping the binding sites of antibodies utilized in programmed cell death ligand-1 predictive immunohistochemical assays for use with immuno-oncology therapies” (Modern Pathology, 2019).

How the values were obtained:
[1] = target: T1, Ext4 PD-L1-GFP, a PD-L1 mutant with residues 284-290 deleted (Homo sapiens, UniProt Q9NZQ7, residues 284–290 deleted); test: immunostaining of cells or tissue; confocal immunofluorescence microscopy of HEK293 cells expressing PD-L1-GFP constructs, stained with r22C3 and r28-8; protocol in Supplementary Appendix B; conditions: one partner purified
T1 construct: The label 'Ext4' is probably a slip for 'Int4'; source: HEK293 cells, expressed, on cells
T1 sequence (Q9NZQ7 19-283, stated change not applied): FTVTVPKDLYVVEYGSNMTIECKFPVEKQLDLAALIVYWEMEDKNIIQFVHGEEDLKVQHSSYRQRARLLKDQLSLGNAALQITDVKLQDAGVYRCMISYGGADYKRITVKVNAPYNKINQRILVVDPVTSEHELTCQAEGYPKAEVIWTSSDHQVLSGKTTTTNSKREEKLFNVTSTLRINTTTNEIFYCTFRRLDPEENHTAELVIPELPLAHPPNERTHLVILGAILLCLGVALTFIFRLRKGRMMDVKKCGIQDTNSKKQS

[2] = target: T2, His-tagged extracellular domain of PD-L1 (residues 19-238) (Homo sapiens (Human)., UniProt Q9NZQ7, N-linked glycosylation (sites N35, N192, N200, N219)); test: SPR; Biacore T200, 25 °C, PBS pH 7.4 with 0.05% Tween-20; 90 RU r22C3 captured, PD-L1 extracellular domain injected at 110 nM, then r28-8 injected over the r22C3-PD-L1 complex (top 33 nM, two-fold dilutions); 1:1 Langmuir model; conditions: both partners purified
T2 construct: programmed cell death ligand-1 (PD-L1), human, extracellular domain, residues 19-238 of the 290-residue protein; The limits are stated for the SPR experiment; also called PD-L1 extracellular domain; recombinant PD-L1; source: provided by MedImmune, Cambridge, UK; purified
T2 sequence (Q9NZQ7 19-238): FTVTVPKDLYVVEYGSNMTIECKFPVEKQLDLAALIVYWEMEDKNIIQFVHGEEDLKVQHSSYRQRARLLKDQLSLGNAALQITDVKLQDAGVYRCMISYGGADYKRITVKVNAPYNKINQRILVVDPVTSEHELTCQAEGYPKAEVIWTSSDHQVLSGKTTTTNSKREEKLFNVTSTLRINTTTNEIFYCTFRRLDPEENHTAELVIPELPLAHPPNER

[3] = target: T2, His-tagged extracellular domain of …; test: SPR; Biacore T200, 25 °C, PBS (10 mM sodium phosphate, 154 mM NaCl, pH 7.4) with 0.05% Tween-20; 90 RU r22C3 captured on anti-mouse antibody on a C1 chip; PD-L1 extracellular domain injected (top 110 nM, two-fold dilutions); 1:1 Langmuir model; conditions: both partners purified

Row | binding result [1] | Kd [2] [pM] | Kd [3] [pM] | Binder
1 | binds | < 40 |  | recombinant 28-8 antibody (r28-8), rabbit IgG (antibody, V domains shown, Rabbit IgG; source: CHO-EBNA-GS cells, transient expression, purified) VH: CLSVEESGGRLVTPGTPLTLTCTASGFTITNYHMFWVRQAPGKGLEWIGVITSSGIGSSSTTYYATWAKGRFTISKTSTTVNLRITSPTTEDTATYFCARDYFTNTYYALDIWGPGTLVTVSS VL: ALVMTQTPSSTSTAVGGTVTIKCQASQSISVYLAWYQQKPGQPPKLLIYSASTLASGVPSRFKGSRSGTEYTLTISGVQREDAATYYCLGSAGSFGGGTEVVVK
2 | binds |  | < 40 | recombinant 22C3 antibody (r22C3), mouse IgG (antibody, V domains shown, Mouse IgG; source: CHO-EBNA-GS cells, transient expression, purified) VH: QVHLQQSGAELAKPGASVKMSCKASGYTFTSYWIHWIKQRPGQGLEWIGYINPSSGYHEYNQKFIDKATLTADRSSSTAYMHLTSLTSEDSAVYYCARSGWLIHGDYYFDFWGQGTTLVTVS VL: DIVMSQSPSSLAVSAGEKVTMTCKSSQSLLHTSTRKNYLAWYQQKPGQSPKLLIYWASTRESGVPDRFTGSGSGTDFTLTISSVQAEDLAVYYCKQSYDVVTFGAGTKLEIK
